Laboratory results reported in patent US20210301011A1, “COMPOSITION FOR PROPHYLAXIS OR TREATMENT OF IL-8 RELATED DISEASES” (CHUGAI SEIYAKU KABUSHIKI KAISHA, priority 2016, published 2021).
“Also recorded” adds a separate entry of the source.

Experiments:
Type in all cases: in vivo, cynomolgus monkeys
endometriosis lesions = test system: endometriosis lesions
Source text: Female cynomolgus monkeys of 8 to 14 years of age with regular sexual cycle (provided by the Tsukuba Primate Research Center at the National Institutes of Biomedical Innovation, Health and Nutrition) were laparotomized under anesthesia during the period corresponding to the luteal phase. The uterine corpus was removed by dissecting in a V shape. Then, the uterine corpus was cut into 5 to 10 mm cubes while leaving the smooth muscle layer of the uterus, and one and two pieces were transplanted onto the right abdominal wall and left abdominal wall (cranial and caudal sides), respectively, in such a manner that the endometrium part is in contact with the peritoneum by suturing with an absorbable suture and formed the transplant. After excision, the uterus was sutured with absorbable suture. Then, the remaining endometrial tissues were finely cut and suspended in 5 ml of 2 ng/ml Hepatocyte Growth Factor solution (R&D systems), and this was seeded in the peritoneal cavity for transplantation, followed by closure of the abdomen. Anesthesia was performed using balanced anesthesia of ketamine/xylazine (mixed at an adequate ratio of about 2:1); however, anesthesia was maintained with isoflurane depending on the maintenance period of anesthesia. The body temperature was maintained and controlled during surgery using a heating pad and the condition was monitored electrocardiographically. The antagonist Antisedan (at roughly the same amount as that of xylazine) and antibiotic cephradine were administered at the time of awakening after surgery. The pain reliever Zalban was administered for two days after surgery, and the monkeys were observed regularly every day to confirm the absence of post-surgical abnormalities. In laparoscopic observation, anesthesia and post-surgical monitoring were also performed in the same way.
Laparoscopic observation was carried out four months, nine months (3 months after administration), and 12 months (6 months after administration) following the surgical induction of endometriosis described above, and the pathological conditions of endometriosis were assessed as follows.
The abdomen was incised in the median line under anesthesia, and laparoscopic observation was performed by inserting a trocar and then introducing a laparoscope. The laparoscope was connected to a video system (KARL STORZ) and a monitor. The monitor was used for intraperitoneal observation, and the video system was used for recording. Then, the peritoneal cavity was filled with carbon dioxide gas using Intra-abdominal Insufflation Unit (OLYMPUS) to expand the abdomen, and graduated bars and forceps were inserted from the ventral portion. The size of the lesion was measured using the graduated bar or graduated forceps.
The sizes (width, height, and depth) of nodular lesions formed by suturing the endometrial tissues were measured and the volumes were calculated based on: width (mm)×height (mm)×depth (mm). The lesions and adhesion formed by seeding endometrial tissues after fine cutting were assessed for the site, area, and depth of adhesion and the size of lesion by laparoscopic observation based on modified r-AFS score modified for monkeys from the r-AFS score for clinical use.
1. The item on adhesion to the vesicouterine pouch was added, because in the monkey model, the frequency of adhesion to the urinary bladder is higher than in humans. The method for assessing adhesion to the urinary bladder was the same scoring as that used for adhesion to the Douglas' pouch. 2. Since monkey's body and organ sizes are smaller than those of humans, the criteria of lesion size scoring were altered to: <3 mm, 3-10 mm, and >10 mm
The grouping was performed in two separate times. After randomization based on the mean volume of nodular lesions and the number of measurable lesions in each individual, eventually, six individuals were assigned to vehicle group and seven individuals were assigned to the antibody H1009/L395-F1974m-administered group. […]

adenomyosis lesions = experiment: Adenomyosis lesions in surgically-induced endometriosis monkey models; conditions: one case per group, compared to vehicle group
Source text: After the final laparoscopic observation six months after the start of antibody administration in surgically-induced endometriosis monkey models, the uteri collected during autopsy were fixed with 10% neutral buffered formalin and HE-stained for observation. Endometrial tissues analogous to those of adenomyosis were strongly seen in the uterus in one case of the vehicle group as well as in one case of the antibody administration group. […] Thus, the monkeys were considered as being a human adenomyosis complication model, and the endometrial tissues in the myometria of these single cases were compared.

post-surgical adhesion = experiment: Post-surgical adhesion-induced monkey model; parameters: key: ∘: Adhesion found; x: No adhesion; conditions: 10 mg/kg i.v. one hour or less after surgery; laparoscopy 24 to 35 days after; per animal
Method: To prepare a post-surgical adhesion-induced model, female cynomolgus monkeys 9 to 16 years of age (provided by the Tsukuba Primate Research Center at the National Institutes of Biomedical Innovation, Health and Nutrition) were treated under anesthesia as follows. Anesthesia was performed using balanced anesthesia of ketamine/xylazine (mixed at an adequate ratio of about 2:1) and isoflurane. An incision of 5 to 6 cm was made in the median line of the abdominal wall. After opening the abdomen, a 1-cm incision was made on the uterine corpus and sutured with 4 stitches using a single suture. Then, the whole uterus was brushed five times with gauze. Next, a 1-cm incision was made to the right abdominal wall peritoneal part at 2 cm from the incised median line of the abdominal wall and sutured by running suture with 4 stitches using an absorbable suture. After suture, the sutured part was brushed five times with gauze. Likewise, the peritoneum of left abdominal wall was incised, sutured, and brushed with gauze. Finally, the median line of abdominal wall was sutured by running suture with 10 to 11 stitches. The entire steps were completed in one hour or less. The antagonist Antisedan (in roughly the same amount as that of xylazine) and the antibiotic cephradine were administered at the time of awakening after surgery. Then, the pain reliever Zalban was administered for two days after surgery, and the monkeys were observed regularly every day to confirm the absence of post-surgical abnormalities. At laparoscopic observation, anesthesia and post-surgical monitoring were also performed in the same way.
The control group was untreated. 24 to 35 days after administration of the anti-IL-8 antibody, laparoscopy was performed to observe the adhesion formed due to incision, suture, and blushing with gauze. The abdomen was incised in the median line under anesthesia, and laparoscopic observation was performed by inserting a trocar and then introducing a laparoscope. The laparoscope was connected to a video system (KARL STORZ) and a monitor. The video system was used for recording, and the monitor was used for intraperitoneal observation. The size of the adhesion was measured using a graduated bar or graduated forceps. The presence, range, and location of adhesion were assessed during laparoscopic observation. […] Although adhesion was found in individual No. 206 in the anti-IL-8 antibody administration group, no adhesion was found in the right and left abdominal wall peritoneum or at the uterine incision site in individual No. 201. […] Those skilled in the art will naturally appreciate that anti-IL-8 antibodies may exert a stronger adhesion formation-preventive effect by appropriately altering the timing of administration or such. […]

B1: H1009/L395-F1974m: H1009-F1974m (SEQ ID NO:36) heavy chain, L395-kOMT light chain; the anti-IL-8 antibody of Table 29 (antibody)
heavy: QVQLVESGGGLVQPGGSLRLSCAASGFTFSDYYLSWVRQAPGKGLEWVGLIRNKDNYHTPEYSASVKGRFTISRDDSKNSLYLTMSDLKTEDTAVYYCARENHRYDVELAYWGQGTLVTVSSASTKGPSVFPLAPSSKSTSGGTAALGCLVKDYFPEPVTVSWNSGALTSGVHTFPAVLQSSGLYSLSSVVTVPSSSLGTQTYICNVNHKPSNTKVDKKVEPKSCDKTHTCPPCPAPELRRGPSVFLFPPKPKDTLMISRTPEVTCVVVDVSHEDPEVKFNWYVDGVEVHNAKTKPREEQYNSTYRVVSVLTVLHQDWLNGKEYKCKVSNKGLPSSIEKTISKAKGQPREPQVYTLPPSREEMTKNQVSLTCLVKGFYPSDIAVEWESNGQPENNYKTTPPVLDSDGSFFLYSKLTVDKSRWQQGNVFSCSVLHEALHAHTTRKELSLSP
light: DIQMTQSPSSLSASVGDRVTITCRASEIIYSYLAWYQQKPGKAPKLLIYKAKTHADGVPSRFSGSGSGTDFTFTISSLQPEDIATYYCKHHFGFPRTFGQGTKVEIKRTVAAPSVFIFPPSDEQLKSGTASVVCLLNNFYPREAKVQWKVDNALQSGNSQESVTEQDSKDSTYSLSSTLTLSKADYEKHKVYACEVTHQGLSSPVTKSFNRGEC
frequency of nodular lesions of type A: proliferative, ≥500 mm3 (endometriosis lesions; 10 mg/kg i.v. q4w, 6 months): 0%
frequency of nodular lesions of type B: proliferative, <500 mm^3 (endometriosis lesions; 10 mg/kg i.v. q4w, 6 months): 8%
frequency of nodular lesions of type C: no change (endometriosis lesions; 10 mg/kg i.v. q4w, 6 months): 33%
frequency of nodular lesions of type D: decreased (endometriosis lesions; 10 mg/kg i.v. q4w, 6 months): 58%
nodular lesions of type A: proliferative, ≥500 mm3 (lesions/total lesions) (endometriosis lesions; 10 mg/kg i.v. q4w, 6 months): (0/12)
nodular lesions of type B: proliferative, <500 mm^3 (lesions/total lesions) (endometriosis lesions; 10 mg/kg i.v. q4w, 6 months): (1/12)
nodular lesions of type C: no change (lesions/total lesions) (endometriosis lesions; 10 mg/kg i.v. q4w, 6 months): (4/12)
nodular lesions of type D: decreased (lesions/total lesions) (endometriosis lesions; 10 mg/kg i.v. q4w, 6 months): (7/12)
change of size r-AFS score (endometriosis lesions; after vs before administration, compared to vehicle group): tended to decrease
change of total r-AFS score (endometriosis lesions; after vs before administration, compared to vehicle group, p=0.0070): clearly decreased as compared to the vehicle group
change of adhesion score (adhesion r-AFS score) (endometriosis lesions; after vs before administration, compared to vehicle group, p=0.0096): clearly decreased as compared to the vehicle group
frequency of deep lesions (endometriosis gland ducts invaded up to the muscle layer of abdominal wall) (endometriosis lesions; anti-antibody-positive individuals excluded, vehicle 5/18 lesions): 1/11
hemosiderin observed (lesions/total) (endometriosis lesions; antibody administration group, vehicle 9/16): 4/17
hemosiderin observed (percent of lesions) (endometriosis lesions; antibody administration group, vehicle 56%): 24%
total modified r-AFS score before and after administration (endometriosis lesions; scores recorded by the practitioner during laparoscopic surgery, P=0.875): the score did not change
histology of adenomyosis lesions (HE staining) (adenomyosis lesions): atrophy of endometrial epithelia in the adenomyosis lesions as well as reduction and atrophy of stromal cells were observed; also recorded: Atrophy of endometrial epithelium, and atrophy and reduction of stromal cells were observed
adhesion at incision site: Abdominal wall, Median line (post-surgical adhesion): ∘
adhesion at incision site: Abdominal wall, Peritoneum (L) (post-surgical adhesion): ∘ and x
adhesion at incision site: Abdominal wall, Peritoneum (R) (post-surgical adhesion): ∘ and x
adhesion at incision site: Uterus (post-surgical adhesion): ∘ and x
